These are literature values, as cited in publication PMC8242001.

In this data set the target is eIF4E (Saccharomyces cerevisiae) (UniProt P07260). Kind of data set: ITC. For orientation: Isothermal titration calorimetry measures the heat released or taken up as one component is titrated into another.
UniProt P07260, sequence (P07260 whole entry): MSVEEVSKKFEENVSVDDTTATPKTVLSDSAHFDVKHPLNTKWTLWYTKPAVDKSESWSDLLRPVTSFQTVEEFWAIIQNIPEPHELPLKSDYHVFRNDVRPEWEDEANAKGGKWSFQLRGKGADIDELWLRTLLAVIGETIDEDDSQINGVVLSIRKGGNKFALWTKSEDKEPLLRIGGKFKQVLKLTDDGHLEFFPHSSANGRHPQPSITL

With Caf20 (from UniProt P12962), the Kd (in general, the equilibrium constant for the complex coming apart) was 20 nM.
